The data set can be described thus: yeast display, Sf9 membrane polyspecificity reagent, FACS + sequencing; frameworks hold sequencing errors. An outline of the steps: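 Using colony PCR, genes from sorted yeast display clones were amplified, then sequenced on MiSeq at 2 × 250 and filtered by CDR length. The clones had been stained with 10% biotinylated, detergent-solubilized Sf9 membrane reagent for 1 hour at 4 °C and sorted by FACS into low and high (top ~1%) gates on anti-HA and streptavidin fluorescence. Polyreactivity labels come from the gate of origin.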
Take “QDQLVESGGGLVQAGGSLRLSCAASGRTFTHYALGWYRQAPGKERELVAAISWSGGITYYADSVKGRFTISRDYAKNTVYLQMNSLKPEDTAVYYCAAEHYFSGYYYWGQGTQVTVSS”: the “polyreactivity (PSR sort gate)” value is given as “high polyreactivity”. For the sequence “QDQLVESGGGLVQAGGSLRLSCAASGRTFWRNAMGWSRQAPGKEREMVAAINSGGRTYYADAVKGRFTISRDNAKNTVYLQMNSLKPEDTAVYYCAVYVHRFLDGRVRSYRGDYWGQGTQVTVSS”, the “polyreactivity (PSR sort gate)” value was “high polyreactivity”. As for “QDQLVESGGGLVQAGGSLRLSCAASGSIFARYAMGWYRQAPGKERELVAAINSTVSTNYADSVKGRFTISRDNAKNTVYLQMNSLKPEDTAVYYCAVDIVRGGRDSWGQGTQVTVSS”, the “polyreactivity (PSR sort gate)” value is “low polyreactivity”. Take “QDQLVESGGGLVQAGGSLRLSCAASGSIFERYTMGWSRQAPGKERELVAAITTNGGSTYADSVKGRFTISRDNAKNTVYLQMNTLKPEDTADYYCNVDVYLYAKEYDYWGQGTQVTVSS”: the “polyreactivity (PSR sort gate)” value is recorded as “high polyreactivity”. For the sequence “QDQLVESGGGLVQAGGSLRLSCAASGSIFGGNTMGWYRQAPGKERELVAAISRSGGSTYYADSVKGRFTISRDNAKNTVYLQMNSLKPEDTEVYYCYRKQAGHAKGYDYWGQGTQVTVSS”, the “polyreactivity (PSR sort gate)” value is recorded as “high polyreactivity”. To “QDQLVESGGGLVQAGGSLRLSCAASGSIFNGNAMGWYRPAPGKERELVAAITRRGGRTFYADSVKGRFTISRDNAKNSVYLQMNSLKPEDTAVYYCNAYSKAVQGGYDYWGQGTQVTVSS” belongs “high polyreactivity”. For the sequence “QDQLVESGGGLVQAGGSLRLSCAASGSIFPDYTMGWYRQAPGKERELVPGNTWNGGGTYYADSVKGRITISRDNAKNTVYLQMYSLKPEDTAVYYCAAVWSGSRSTGAWGPYNYWGQGTQVTVSS”, the “polyreactivity (PSR sort gate)” value is “low polyreactivity”. To “QDQLVESGGGLVQAGGSLRLSCAASGSIFPGYAMGWYRKAPGKEREFVATITWSGGSTYYADSVKGRFTISRDNAKNTVYLQMNSLKPEDTAVYYCNADSNWYYQWNYYGLYDYWGQGTQVTVSS” belongs “low polyreactivity”; to “QDQLVESGGGLVQAGGSLRLSCAASGSIFRAYAMGWYRQAPGKERELVAAISRSGDSTYYADSVKGRFTISRDNAKNTVYLQMNSLKPEDTAVYYCAAQRKPYVRPSGPYKRRDYWGQGTQVTVSS”, “high polyreactivity”; to “QDQLVESGGGLVQAGGSLRLSCAASGSIFTDYAMGWYRQAPAKERELVAAITSSGGSTYYADSVKGRFTISRDYAKNTVYLQMKSLKTEDTAVYYCAADRITIYDYWGQGTQVTVSS”, “low polyreactivity”. For “QDQLVESGGGLVQAGGSLRLSCAASGSIFVNYAMGWYRQAPGKERELVAAISRSGGRTYYADSVKGRFTISRDSAKITVYLQMNSLIPEDTAVYYCNVDPVLRTIEGDYWGQGTQVTVSS”, the “polyreactivity (PSR sort gate)” value is “high polyreactivity”. Take “QDQLVESGGGLVQAGGSLRLSCAASGSIFVRYAMGWYRQAPGKERELVAAITSSAGYTYYADSVKGRFTISRDNAKNTVNLQMNSLKPEDTAVYYCAAVRYDASKFYYWGAGTQVTVSS”: the “polyreactivity (PSR sort gate)” value was “high polyreactivity”. In the case of “QDQLVESGGGLVQAGGSLRLSCAASGSIFYRNAMGWYRQAPGKERELVAAISSDGSTNYADSVKGRFTISRDNAKNTVYLQMNSLKPEDTAVYYCAAPWTQILDYWGQGTQVTVSS”, the “polyreactivity (PSR sort gate)” value is reported as “low polyreactivity”. Take “QDQLVESGGGLVQAGGSLRLSCAASGSMFDYYAMGWYRQAPGKERELVAAISGSGSRTYYADSVKGRFTISRVTAKNTVYIQMNRLKPEDTAFYYCAAESVVYDIVGYEYWYDYYWGLGTQVTVSS”: the “polyreactivity (PSR sort gate)” value is “high polyreactivity”. To “QDQLVESGGGLVQAGGSLRLSCAASGSTFDGYAMGWYRPAPGKERELVADITSGGSTYYADSVKGRFTISRDNAKNTVYLQMNSLKPEDTAVYYCAVEGWWDDYNSRAGEFNYWGQRTQVTVSS” belongs “low polyreactivity”.

For “QDQLVESGGGLVQAGGSLRLSCAASGSTFGFYAMGWYRQAPGKERELVAAITTGGSTNYADSVKGRFTISRDNAKNTVYLQMNSLKPEDTAVYYCNADVYWNPYYDYDYWGQGTQVTVSS”, the “polyreactivity (PSR sort gate)” value is listed as “high polyreactivity”. With “QDQLVESGGGLVQAGGSLRLSCAASGSTFHLNALGWYRQSPGKERELVAAISRDGSSTSYADSEKGRFTISRDNAKNTVYLQMNSLKPEDTAVFYCAADDTLDRVPSTFIDGSPGYGYWGLGTQVTVSS”, the “polyreactivity (PSR sort gate)” value is on record as “low polyreactivity”. Regarding “QDQLVESGGGLVQAGGSLRLSCAASGSTFLTYAMGWYRQAPGKERELVAAISKTGASTYYADSVKGRFTISRDNAKNTVYLQMNSLKPEDTAVYDCAAGRYTSYSPRYYYWGQGTQVTVSS”, the “polyreactivity (PSR sort gate)” value is “high polyreactivity”. With “QDQLVESGGGLVQAGGSLRLSCAASGSTFSGYGMGWYRQAPGKERELVAAITSSGGRTYYADSVKGRFTISRDNAKNTVYLQMNSLKPEDTAVYYCAALYYHEYDYWGQGTQVTVSS”, the “polyreactivity (PSR sort gate)” value is recorded as “low polyreactivity”. The value for “QDQLVESGGGLVQAGGSLRLSCAASGSTFVANDMGWYRQAPGKERELVASISDGSSTYADSVKGRFTISRDNAKNTVYLQMNSLKPEDTAVYYCAKDGSLDAQSYDYDYWGQGTQVTVSS” was “low polyreactivity”; that for “QDQLVESGGGLVQAGGSLRLSCAASGSTFVVNAMGWYRQAPGKERELVAAISSSGSSTYADSVKGRFTISRDNEKNTVYLQMNCLKPEDTAVYYCHKTTLLTVEYDYWGQGTQVSVSS” was “low polyreactivity”; that for “QDQLVESGGGLVQAGGSLRLSCAASGSTLGYNAMGWYRQAPGKERELVAAIRGGDDDTYYADSVKGRFTISRDNAKNTVYLQMNSLKPEDTAVYYCATGDTSIPYSTPGGYDSWGQGTQVTVSS” was “low polyreactivity”. For the sequence “QDQLVESGGGLVQAGGSLRLSCAASGYTFTSNAMGWYRQAPRKERELVAAITNVGSTNYADSVKGRFTISRDNAKNTVNLQMNSLKPEDTAVYYCAAGGSSSWAFNYWGQGTQVTVSS”, the “polyreactivity (PSR sort gate)” value is on record as “low polyreactivity”. For “QDQLVESGGGLVQAGGSLRLSCAASGYTLYTYAMGWNRQAPRKERELVAAISTGGGRTYNADSVKGRFTISRDNAKNTVYLQMICLKPEDTAVYYCAAPYRSLKTGRYDYWGQGTQVSVSS”, the “polyreactivity (PSR sort gate)” value is on record as “high polyreactivity”. On to “QDQLVESGGGLVQAGGSLRLSCAASRSTFYHNVMGWYRQAPGKERELVASIDTGDSTNYADSVKGRFTISRDNAKNTVYLQMNSLKPEDTAVYYCAAEIPRRWASFATLWYDYWGQGTQVTVSS”, for which the “polyreactivity (PSR sort gate)” value is “low polyreactivity”.

In the case of “QDQLVESGGGLVQAGGSLRLSCAASVSTFVNYAMGWYRQAPGKEMELVAAMSWSGGSTYYADSVKGRFTISRDNAKNTVYLQMNSLKPEDTAVYYCAVYAYWRFRTYYYWGQGTQVTVSA”, the “polyreactivity (PSR sort gate)” value is “high polyreactivity”. As to “QDQLVESGGGLVQAGGSLRLSCAATGRIFERNAMGWYRQAPAKERELVARITSGGGTYYADSVKGRFTISRDNAKNTVYLQMNSLKPEDTAVYYCAVQYLYRKYRRYDYWGQGTQVTVSS”, the “polyreactivity (PSR sort gate)” value is “high polyreactivity”. With “QDQLVESGGGLVQAGGSLRLSCAATGSIFGFNTMGWYRQAPGKERELVPTINWRGGRTYYADSVKGRFTISRDNAKNTVYLLMNSLKPEDTAVYYFNTQGLAGQYQEHGYWGQGTQVTVSS”, the “polyreactivity (PSR sort gate)” value is “high polyreactivity”.

In the case of “QDQLVESGGGLVQAGGSLRLSCAAYGSTFERYVMGWYRQAPGKDRELVADINSGGSTNYADSVKGRFTISRDNAKNTVYLQMNSLKPEDTAVYYCAKDGWGGWWFPYRVKYGYWGQGSQVTVSS”, the “polyreactivity (PSR sort gate)” value is “low polyreactivity”. On to “QDQLVESGGGLVQAGGSLRLSCAPSGFIFEYNAMGWYRQAPGKESELVADISFSGGSTYYADSVKVRFTISRDNAKNTVYLQMKSLKPEDTAGYYCAARALASVSAHKYDYWGQGTQVTVSS”, for which the “polyreactivity (PSR sort gate)” value is recorded as “low polyreactivity”. Consider “QDQLVESGGGLVQAGGSLRLSCAPSGRTFYSYAMGWYRQAPGKERELVATIDSGGRTNYADSVKGRFTISRDNAKNTVYLQMNSLKPEDTAVYYCAASVWNWYFGIRYDYWGQGTQVTVSS”, for which the “polyreactivity (PSR sort gate)” value is reported as “high polyreactivity”. Turning to “QDQLVESGGGLVQAGGSLRLSCAPSGSIFYTNAMGWYRQAPRKERHLVAAISWGGGSTYYADSVKGRFTISRDNAKNTVYLQMNSLKAEDTAVYYCAARYYVYQQGFRSHVTKHYDYWGQGTQVTVSS”, the “polyreactivity (PSR sort gate)” value is “low polyreactivity”. “QDQLVESGGGLVQAGGSLRLSCDASGSTFYRYDMGRSRQAPGKERELFAAINQSGDSTYYADSVKGRFTISRDKAKNTVYLQMNSLKPEDTAVYYCAAVRSRYLAFYYWGQCTQVTVSS”: the “polyreactivity (PSR sort gate)” value is on record as “low polyreactivity”. As for “QDQLVESGGGLVQAGGSLRLSCHSSGFIFTDYAMGWYRQAPGKERELVARITSGGASTYYADSVKGRFTISRDIAKNTVYLQMNSLKPEDTAVYYCAAQARCWGYVYWGQGTQVTVSS”, the “polyreactivity (PSR sort gate)” value is recorded as “low polyreactivity”. With “QDQLVESGGGLVQAGGSLRLSCPASGFTFERNTMGWYRQAPGKERELVAVITRRGGNTNYADSVKGRFTISRDNAKNTVYLQMNSLKPEDTAVYYCAAYYSHYGTRYDYWGQGTQVTVSS”, the “polyreactivity (PSR sort gate)” value is on record as “high polyreactivity”. “QDQLVESGGGLVQAGGSLRLSCSASGRIFYYYTMGWYRQEPGKERELVAAISSGGSTNYADSVKGRFTISRDNAKNTVYLQMNSLKPEDTAVYYCNVELTTVGHWYYYRPGYDYWVQGTQVTVSS”: the “polyreactivity (PSR sort gate)” value was “low polyreactivity”.

For “QDQLVESGGGLVQAGGSLRLSFAASVSTFTTYAKGWYRQAPGKERELVAAIDWSDGSITYYADSVKGRFTISRDNAKNTVYLQMNSLKPEDTAVYYCAKDNSQYGWGYDYWVQGTQVTVSS”, the “polyreactivity (PSR sort gate)” value was “low polyreactivity”. For the sequence “QDQLVESGGGLVQAGGSLRLTCAASGFTFRRNAMGWYRQAPGKERELVAAISSRGGSTYYADSVKGRFTISRDNAKNTVYLQMNSLKPEDTAVYYCAAYYVPWGTLYHLDYWGQGTQVTVSS”, the “polyreactivity (PSR sort gate)” value is “high polyreactivity”. For the sequence “QDQLVESGGGLVQAGRSLRLSCAASGSIYAFYAMGWYRQAPRKERELVAAISSRGGRTYYADSVKGRFTISRDNAKNTVYLQMNRLKPEETAVYYCAALYWRYLGYPVVRYYYWGQGTQVNVSS”, the “polyreactivity (PSR sort gate)” value is “high polyreactivity”. Regarding “QDQLVESGGGLVQAGRSLRLTCAASGSIIPGNAMGWYRQAPGKERELVAVIDFSGASTYYADSVKGRFTISRDNAKNTVYLQMNSLKPEDTADYWGQGTQVTVSS”, the “polyreactivity (PSR sort gate)” value was “low polyreactivity”. For the sequence “QDQLVESGGGLVQAGVSLRLSCAASGIISSDNAMGWYRQAPGKERELVAAITVSGGSTYYADSVKRRFTISRDNAKNTVYFQMNSLKPEDTAVYYCAADYSLEYGFDYWGQGTQVSVSS”, the “polyreactivity (PSR sort gate)” value is given as “low polyreactivity”.

The values are drawn from the nanobody polyreactivity screen of Harvey et al. (2022).
